Test results published in patent publication US20200362021A1 (PHANES THERAPEUTICS, published 2020).
Numbering of substitutions follows the chain as printed. No end group written: not given here. *: point of attachment. Biotin = O=C1N[C@H]2[C@H](CS[C@H]2CCCCC(=O)*)N1

Tests used:
[1] = target: T1, biotin-apelin-13 (biotin-…) (N-terminal biotin); test: SPR (Biacore) with biotin-apelin-13, humanized IgG1 mAb in HEK293 supernatant
T1 construct: also called Biotin-APL13
From the text: The rabbit anti-apelin mAb C8 was humanized to reduce the potential of immunogenicity when used in human patients. The sequences of the variable regions of the heavy and light chains (VH and VL) were compared with the human antibody sequences in the Protein Data Bank (PDB) database and a homology model was built by applying SWISS-modeling. The CDRs in both the heavy and light chains of the rabbit mAb were grafted into human frameworks that have the highest possibility of maintaining the proper structure likely required for antigen binding. Backmutations from human residue to rabbit residue were designed when necessary. The sequences of the humanized VH and VL regions are shown in Table 11 and Table 12, respectively. The humanized VH and VL regions were fused to human IgG1 heavy chain and kappa light chain constant regions, respectively, to generate humanized mAbs. Constructs corresponding to the mAb sequences were used for transient transfection in HEK 293 cells and the supernatants were analyzed for the affinity of each humanized mAb for apelin.

[2] = target: T1, biotin-apelin-13 (biotin-…); test: ELISA, increasing concentrations of IgG4 mAb immobilized on plate, biotin-apelin-13 added, streptavidin-AP detection
From the text: Two additional humanized mAbs (B24 and B25) were generated with sequence modifications on A31. […] The binding was then detected by adding PNPP substrate and reading absorbance of the ELISA plates at 405 nm.

[3] = target: alanine scanning peptide 9A (KAPMPF); test: competition ELISA, captured mAb, peptide competes with biotin-apelin-13, A405
Experimental: (§1) Goat anti-rabbit IgG was immobilized on an ELISA plate. […] Several competition peptides were used as controls.
(§2) For the peptide competition assay, goat anti-rabbit IgG in carbonate coating buffer was coated on high binding ELISA plates at 1 μg/ml overnight. […] After incubation at room temperature for 60 minutes, the plates were washed and then streptavidin-conjugated to alkaline phosphatase was added, and the binding was detected by adding PNPP substrate and reading absorbance of ELISA plates at 405 nm. Each competition peptide or control sample was assayed in duplicate for a given mAb. […] “No comp:” no competition peptide was added; “No Ab, No Comp:” neither competition peptide nor anti-apelin mAb was added.

[4] = target: T2, alanine scanning peptide 10A (KGAMPF); test: as above
T2 peptide: KGAMPF
Experimental: as §1, §2

[5] = target: T3, apelin peptide 2-13 (RPRLSHKGPMPF); test: as above
T3 peptide: RPRLSHKGPMPF
Experimental: as §1, §2

[6] = target: alanine scanning peptide 8A (AGPMPF); test: as above
Experimental: as §1, §2

[7] = target: T1, biotin-apelin-13 (biotin-…); test: SPR (Biacore), biotin-apelin-13 on streptavidin CM5 chip, mAb at 12.5-100 nM
Experimental: Anti-apelin mAbs at four different concentrations (12.5 nM, 25 nM, 50 nM and 100 nM) were captured on the chip surface. The on- and off-rate for antibody-antigen binding were measured, curve fitted and calculated.

[8] = target: T4, apelin peptide 6-13 (SHKGPMPF); test: competition ELISA, captured mAb, peptide competes with biotin-apelin-13, A405
T4 peptide: SHKGPMPF
Experimental: (§3) Goat-anti-rabbit IgG was immobilized on an ELISA plate.
(§4) The antibody binding sites for anti-apelin mAbs C8, C24, and C25 were mapped using an ELISA-based peptide competition assay. […] Each of the competition peptides (Table 7) was assessed for its ability to inhibit biotin-apelin-13 binding to the mAb. An inhibition signal reflects the ability of the competition peptide to bind to the mAb in solution.
as §2

[9] = target: T5, apelin peptide 3-13 (PRLSHKGPMPF); test: as above
T5 peptide: PRLSHKGPMPF
Experimental: as §3, §4, §2

[10] = target: T6, apelin peptide 5-13 (LSHKGPMPF); test: as above
T6 peptide: LSHKGPMPF
Experimental: as §3, §4, §2

[11] = target: T7, apelin peptide 1-12 (QRPRLSHKGPMP); test: as above
T7 peptide: QRPRLSHKGPMP
Experimental: as §3, §4, §2

[12] = target: T8, apelin peptide 8-13 (KGPMPF); test: as above
T8 peptide: KGPMPF
Experimental: as §3, §4, §2

10-13 = target: T9, 10-13; test: as above
T9 construct: also called apelin peptide 10-13 (PMPF)
T9 peptide: PMPF
Experimental: as §3, §4, §2

[13] = target: T10, apelin peptide 7-13 (HKGPMPF); test: as above
T10 peptide: HKGPMPF
Experimental: as §3, §4, §2

[14] = target: T11, apelin peptide 4-13 (RLSHKGPMPF); test: as above
T11 peptide: RLSHKGPMPF
Experimental: as §3, §4, §2

9-13 = target: T12, 9-13; test: as above
T12 construct: also called apelin peptide 9-13 (GPMPF)
T12 peptide: GPMPF
Experimental: as §3, §4, §2

[15] = target: T13, pyr-apelin-13-biotin (pE-RPRLSHKGPMPF-biotin) (N-terminal pyroglutamate (pE); C-terminal biotin); test: ELISA, peptide on neutravidin plate, mAb 200 ng/ml, A405
T13 construct: also called pyrAPL13-Biotin
T13 peptide: ERPRLSHKGPMPF
Experimental: (§5) FIGS. 1A-1C show binding of anti-apelin mAbs to various biotinylated apelin peptides measured by ELISA. Biotinylated apelin peptides were immobilized on ELISA plates coated with neutravidin and purified recombinant rabbit anti-apelin mAbs were added for binding to the peptides on the plates. The binding was detected by adding a goat anti-rabbit IgG Fc-conjugated to alkaline phosphatase and PNPP substrate, and measured as the absorbance at 405 nm.
(§6) For the binding assay, neutravidin in carbonate coating buffer was coated on high binding ELISA plates at 1 μg/ml overnight. Peptides were added at 4 μg/ml after the plates were blocked with 1% BSA in TBS. After incubation of the plates at room temperature for 60 minutes, the plates were washed and then purified recombinant rabbit antibodies were added at 200 ng/ml. Following rabbit antibody binding to the peptides on the plates at room temperature for 90 minutes, goat anti-rabbit IgG Fc-conjugated to alkaline phosphatase was added, and antibody-antigen binding was detected by adding PNPP substrate and reading absorbance of ELISA plates at 405 nm. Each mAb was assayed in duplicate.

Biotin-APL17 = target: T14, Biotin-APL17; test: as above
T14 peptide: Biotin-KFRRQRPRLSHKGPMPF
Experimental: as §5, §6

B1: humanized anti-apelin mAb A11 (antibody, V domains shown)
VH: QSLEESGGGLVQPGGSLRLSCAVSGIDLYSNRMSWVRQAPGKGLEWVSSIGSSPWYASWAQGRFTISRDNSNTLYLQMNSLTAEDTAVYYCAKGGYRPGASVWGQGTLVTVSS
VL: DIQLTQSPSSLSASVGDRVTITCQSSQSIYDNNDLAWYQQKPGKTPKRLIYLASSLDSGVPSRFSGSGSGTDFTLTISSLQPEDVATYYCAGGYSGDIYTFGGGTKVEIK
notes: humanized from C8; tested as HEK293 supernatant
Kd [1]: 0.126 pM

B2: humanized anti-apelin mAb A33 (antibody, V domains shown)
VH: B1 VH with S48G, L74V, V88T, Y90F
VL: AQVLTQSPSSLSASVGDRVTIACQSSQSVYDNNDLAWYQQKAGQTPKRLIYLASSLDSGVPSRFSGSGSGTEFTLTISSLQCEDVATYYCAGGYSGDIYTFGGGTEVVVE
notes: as for B1
Kd [1]: 0.0143 pM

B3: humanized anti-apelin mAb B24 (human IgG4 backbone) (antibody, V domains shown)
VH: QSLEESGGGLVQPGGSLRLSCTVSGIDLYTNRVSWVRQAPGKGLEWVGSIGSSPWYASWAQGRFTISRDNSNTVYLKMNSPTAEDTATYFCAKGGYRPGGSIWGQGTLVTVSS
VL: B1 VL with A36G
EC50 [2]: 790 pM

B4: humanized anti-apelin mAb B25 (human IgG4 backbone) (antibody, V domains shown)
VH: B3 VH with V33M, Y56F, Q61L, G100A, I102V
VL: B1 VL with S95N
EC50 [2]: 470 pM

B5: humanized anti-apelin mAb A21 (antibody, V domains shown)
VH: B1 VH with L74V, V88T, Y90F
VL: B1 VL
notes: as for B1
Kd [1]: 0.00165 pM

B6: humanized anti-apelin mAb A43 (antibody, V domains shown)
VH: B3 VH with T30S, V33M, G100A, I102V
VL: B2 VL
notes: as for B1
Kd [1]: 3.26 pM

B7: humanized anti-apelin mAb A41 (antibody, V domains shown)
VH: B3 VH with T30S, V33M, G100A, I102V
VL: B1 VL
notes: as for B1
Kd [1]: 0.067 pM

B8: anti-apelin mAb C8 (antibody, V domains shown)
VH: QSVEESGGRLVTPGTPLTLTCTVSGIDLYSNRMSWVRQAPGKGLEWIGSIGSSPWYASWAQGRFTISKTSSTTVNLKITSPTTEDTATYFCAKGGYRPGASVWGPGTLVTVSS
VL: QVLTQTESPVSAPVGGTVTIACQSSQSVYDNNDLAWYQQKAGQTPKRLIYLASSLDSGVPSRFKGSGSGTEFTLTISDLECDDAATYYCAGGYSGDIYTFGGGTEVVVE
notes: recombinant rabbit IgG made in HEK293 cells
binding result [3]: binds | binding result [4]: binds | binding result [5]: binds | binding result [6]: binds | Kd [7]: 17.4 pM | binding result [8]: binds | binding result [9]: binds | binding result [10]: binds | binding result [11]: no binding (tested: peptide concentration not stated) | binding result [12]: binds | binding result (10-13): binds | binding result [13]: binds | binding result [14]: binds | binding result (9-13): binds

B9: anti-apelin mAb C17 (antibody, V domains shown)
VH: QSVEESGGRLVKPDETLTLTCAVSGIDLSSNAMNWVRQAPGEGLEWIGSMYTDGTTYYANWAKGRFTISRASSTTVDLKMTSLTAADTATYFCARGDIWGPGTLVTVSS
VL: QVLTQTASPVSAAVGGTVTISCQSSQSVYNNNWLAWFQQKPGQPPKRLIYGTSELASGVPSRFKGSGSGTQFTLTISGVQCDDAATYYCLGTYSSNIHVFGGGTEVVVK
notes: as for B8
binding result [15]: no binding (tested: 200 ng/ml) | Kd [7]: 1060 pM

B10: anti-apelin mAb C26 (antibody, V domains shown)
VH: QEQLEESGGGLVQPEGSLTLTCTASGFTLSNYWMSWVRQAPGKGLVWIGCIDIGSDDTYYASWAKGRFTISRTSSTTVTLQVTSLTAADTATYFCARSGGLWGPGTLVTVSS
VL: QVLTQTPSSTSAAVGGTVTINCQASQSVYNNNDLAWYQQKPGQPPKRLIYEASKLASGVPSRFSGSGSGTQFTLTISDLECDDAATYYCAGGWSGNFYVFGGGTEVVVK
notes: as for B8
binding result [15]: no binding (tested: 200 ng/ml) | Kd [7]: 119 pM

B11: anti-apelin mAb C27 (antibody, V domains shown)
VH: QSVEESGGRLVTPGGSLTLTCTVSGIDLINAWMNWVRQAPGKGLEWIGTTTDDDTIYYANWAKGRFTISRTSTTVDLKVTSLTSEDTATYFCSKGRIWGPGTLVTVSL
VL: QVLTQTPASVSAAVGGTVTINCQASQSVYDGNWLCWYQQKPGQPPKRLIYKASTLESGVPSRFKGSGSGTQFTLTISDLECDDAATYYCQGGFTSNIYPFAGGTEVVVK
notes: as for B8
binding result [15]: no binding (tested: 200 ng/ml) | binding result (Biotin-APL17): binds | Kd [7]: 589 pM

B12: C13 (antibody, V domains shown)
VH: QSLEESGGRLAKPGETLTLTCTVSGIDLNSHAVDWVRQAPGKGLEWIGVIGPGGNTYYASWAKGRFTISKTSSTTVDLKMTSLTAEDTATFFCATYPIYSGDNIWGPGTLVTVSS
VL: DPVLTQTPPSVSAAVGGTVTINCQSSESVDNNNQLSWYQQKVGQPPKRLMYYASTLDSGVPSRFKGGGSGTHFTLTITDLECDDAATYYCQGGTATNIYPFGGGTEVVVK
notes: recombinant rabbit mAb; also called anti-apelin mAb C13
binding result [15]: binds | binding result (Biotin-APL17): binds

B13: anti-apelin mAb C5 (antibody, V domains shown)
VH: QSVEESGGRLVTPGTPLTLTCTVSGFSLSGAWMNWVRQAPGKGLEWIGVVSSDDNIYYADWAKGRFTISKTSTTVDLKLTSPTTEDTATYFCARNLGTIWGPGTLVTVSS
VL: QVLTQTESPVSAAVGGTVTINCQSSQSVWSNYLSWFQQKPGQPPKVLIYGTSKLPSGVPSRFSGSGSGTEFTLTINDLECDDAATYYCAGGYSGHIYSFGGGTEVVVK
notes: as for B8
binding result [15]: no binding (tested: 200 ng/ml) | Kd [7]: 51300 pM
